In US20020076693A1 (published 2002) one finds Ka, koff and kon data, which are given here for one molecule.

The assay has as its target T1, recombinant soluble CD4 (UniProt P01730 26-396).
T1 construct: domain: soluble form of recombinant CD4
The experiment in a line: BIAcore, soluble CD4; row shifted one column to the left. (Surface plasmon resonance follows binding to a sensor surface in real time, without labels.)

B1: recombinant gp120 of HIV-1 SF2 (ligand)
chain: not shown
notes: domain: gp120; also called gp120 HIV-1 SF2; gp120-SF2
One may read the koff as the first-order rate constant of dissociation. What is called kon is the second-order rate constant of association. Take B1: the Ka amounted to 2.1e+08 M⁻¹, the koff was determined as 0.0056 s⁻¹ and the kon amounted to 1.15e+06 M⁻¹ s⁻¹.
